{"source": "patent US20230272028", "proteins": {"B1": {"name": "Cathepsin K (CTSK) (protein)", "chain": "APDSVDYRKKGYVTPVKNQGQCGSCWAFSSVGALEGQLKKKTGKLLNLSPQNLVDCVSENDGCGGGYMTNAFQYVQKNRGIDSEDAYPYVGQEESCMYNPTGKAAKCRGYREIPEGNEKALKRAVARVGPVSVAIDASLTSFQFYSKGVYYDESCNSDNLNHAVLAVGYGIQKGNKHWIIKNSWGENWGNKGYILMARNKNNACGIANLASFPKM"}}, "key": {"[1]": {"target": "T1, CTSL1_2 8-mer FRET substrate Mca-ALFFSSPPK-Dnp", "T1 chain": "ALFFSSPPK"}, "[2]": {"target": "T2, CTSL1_1 FRET substrate (ALFKSSFP)", "T2 chain": "ALFKSSFP"}}, "data": [{"protein": "B1", "values": [{"measurement": "FRET substrate cleavage, specific activity", "setting": "[1]", "result": "measurably cleaved by CTSK but at a 15× lower level than the CTSL1_1 substrate"}, {"measurement": "FRET substrate cleavage, specific activity", "setting": "[2]", "result": "measurably cleaved by CTSK but at a 15× lower level than the CTSL1_1 substrate"}]}]}
